Paper PMC9964254, “Caspase Inhibition Modulates Monocyte-Derived Macrophage Polarization in Damaged Tissues” (International Journal of Molecular Sciences, 2023)

Target: T1, p47^PHOX (83-390) (UniProt P14598 83-390)
T1 construct: p47^PHOX residues 83-390 (the first 82 amino acids deleted from the GST-p47^PHOX construct); Made from the GST-p47^PHOX construct (pGEX-6P-3); also called truncated p47^PHOX; p47^PHOX truncated at position 82; source: E. coli (BL21), purified with glutathione sepharose beads
T1 sequence (looked up): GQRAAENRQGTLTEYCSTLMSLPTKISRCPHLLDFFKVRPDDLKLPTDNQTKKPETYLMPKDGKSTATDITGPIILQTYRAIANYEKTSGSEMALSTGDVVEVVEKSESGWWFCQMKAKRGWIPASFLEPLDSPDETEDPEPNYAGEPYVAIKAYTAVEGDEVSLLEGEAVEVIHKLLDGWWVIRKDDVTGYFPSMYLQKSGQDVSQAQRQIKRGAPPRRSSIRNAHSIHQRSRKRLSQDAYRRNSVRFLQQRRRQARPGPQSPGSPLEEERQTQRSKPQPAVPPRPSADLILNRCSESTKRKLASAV
Assay: pull-down; 214 nM p47^PHOX proteins with 286 nM GST or GST-p22^PHOX (132-195), 30 min at 4 °C in PBS pH 7.4, 0.1% Triton X-100; glutathione sepharose beads 1 h at 4 °C, eluted with 10 mM glutathione, immunoblot with anti-p47^PHOX
Conditions: both partners purified

binding result: binds
B1: GST-p22^PHOX (132-195) (domain or fragment, UniProt P13498 132-195, looked up)
chain: TPIEPKPRERPQIGGTIKQPPSNPPPRPPAEARKKPSEEEAAVAAGGPPGGPQVNPIPVTDEVV
notes: p22^PHOX residues 132-195
